Km, kcat and kcat/Km data for 2 proteins are collected here from PMC6049852, “Comprehensive investigation of a dye-decolorizing peroxidase and a manganese peroxidase from Irpex lacteus F17, a lignin-degrading basidiomycete” (AMB Express, 2018).

By Km is commonly meant the concentration of substrate that gives half-maximal velocity. The kcat is the maximal rate divided by the concentration of active sites.

Holding throughout (test): purified protein
Substrate in series [1]: COc1ccccc1O
The conditions noted are these: pH 4, 45 °C, error = 95% confidence limits.

Substrate in series [2]: CCn1c(=NN=c2sc3cc(S(=O)(=O)O)ccc3n2CC)sc2cc(S(=O)(=O)O)ccc21
The class given is biochemical, Irpex lacteus. The following applies: error = 95% confidence limits.

Substrate in series [3]: COc1cccc(OC)c1O
The series is classed as biochemical, Irpex lacteus. The conditions noted are these: error = 95% confidence limits.

Substrate in series [4]: Nc1c(N=Nc2ccc(S(=O)(=O)CCOS(=O)(=O)O)cc2)c(S(=O)(=O)O)cc2cc(S(=O)(=O)O)c(N=Nc3ccc(S(=O)(=O)CCOS(=O)(=O)O)cc3)c(O)c12
The class given is biochemical, Irpex lacteus. The following applies: error = 95% confidence limits.

Substrate in series [5]: Nc1c(S(=O)(=O)O)cc(Nc2cccc(S(=O)(=O)CCOS(=O)(=O)O)c2)c2c1C(=O)c1ccccc1C2=O
The class given is biochemical, Irpex lacteus. The following applies: error = 95% confidence limits.

Substrate in series [6]: COc1ccc(CO)cc1OC
The class given is biochemical, Irpex lacteus. The following applies: 0.1 mM H2O2, 0.1 M sodium tartrate, pH 3.5, 45 °C, error = 95% confidence limits.

Where [7] appears, read: 0.1 mM H2O2, 1 mM Mn2+, 0.1 M sodium tartrate.
Setting [8] is: 0.1 mM H2O2, 1 mM Mn2+, 0.1 M sodium tartrate, pH 3.5, 45 °C.
Where [9] appears, read: 0.1 mM H2O2, 1 mM Mn2+, 0.1 M sodium tartrate, pH 4.5, 55 °C.
Where [10] appears, read: 0.1 mM H2O2, 1 mM Mn2+, 0.1 M sodium tartrate, pH 3, 35 °C.
Setting [11] is: 0.1 mM H2O2, 0.1 M sodium tartrate.
The mark [12] stands for this setting: 0.1 mM H2O2, 0.1 M sodium tartrate, pH 3.5, 35 °C.
The mark [13] stands for this setting: 0.1 mM H2O2, 0.1 M sodium tartrate, pH 4, 35 °C.
Setting [14] is: 0.1 mM H2O2, 0.1 M sodium tartrate, pH 4.5, 35 °C.

B1: Il-MnP6 (Irpex lacteus) (protein)
chain: TKRVACPDGKNTATNAACCALFAIRDDIQENLFDGGQCGEEVHESFRLTFHDAIGIGSNGGGGADGSIAVFEAIETAFHANNGVDEIIDEQKPFIARHNITPGDFIQFAGAVGVSNCPGAPRLDFFLGRPNPVAPAPDKTVPEPFDSVTSILARFKDAGNFSPEEVVALLGSHTIAAADHVDPTIPGTPFDSTPEVFDTQVFLEVQLRGTLFPGTAGNQGEVQSPLRGEIRLQSDHDLARDQRTACEWQSFVNNQAKLQRNFKAAFKKLSILGHDERRLIDCSEVIPEPPNVKVKPATFPAGLSNKDVEQACRATPFPTLPTDPGPSTSVAPVPPS
notes: 359 aa printed, predicted 23-aa signal peptide; short-type MnP
For the protein B1, the Km is 2.6 ± 0.6 µM in series [1] (setting [7]); 83 ± 6.5 µM in series [2] (setting [8]); 53 ± 8.6 µM in series [3] (setting [9]); 4.4 ± 0.7 µM in series [4] (setting [10]); 81 ± 39.5 µM in series [5] (setting [10]). Also, the kcat in series [1] (setting [7]) turned out to be 184 ± 7 s⁻¹; in series [2] (setting [8]) it was 245 ± 7 s⁻¹; in series [3] (setting [9]), 989 ± 100 s⁻¹; in series [4] (setting [10]) it was 0.06 ± 0.003 s⁻¹; in series [5] (setting [10]), 7.3 ± 2.6 s⁻¹. The kcat/Km result in series [1] (setting [7]) is on record as “(7.1 ± 0.3) × 10^7 s^-1M^-1”; in series [2] (setting [8]), “(3.0 ± 0.09) × 10^6 s^-1M^-1”; in series [3] (setting [9]), “(1.9 ± 0.2) × 10^7 s^-1M^-1”; in series [4] (setting [10]) it was “(1.5 ± 0.07) × 10^4 s^-1M^-1”; in series [5] (setting [10]), “(9.0 ± 3.2) × 10^4 s^-1M^-1”.

B2: Il-DyP4 (Irpex lacteus) (protein)
chain: SAGNDSLPFENIQGDILVGMKKDKEKFVFFHINNATAFKSVLKTYAPANITSVATIIGPVANQPLAFVNLAFSHAGFGALNVTDDLQDTAFSDGQFKDSPNLGDDTSTWEEAFKGTNVDGVFLIGSNDESITAQYRDDLNAKFGDAWTIVYDLDSAARPGNEKGHEHFGYLDGISNPTIPGFGTPHPGQAVVDPGIIFTGRSKDPVMNRPSWALDGSFLVFRKLKQLVPEFNKYVLDNALQNQAGNLTVEEGAELLGSRMFGRWKSGAPIDLSPDFDDPALGNDIERNNNFNYSHPGSDLATDQTRCPFTAHIRKTNPRDLEGQGLFGDTFHAIRAGTPYGPEVTDYEASSNTTTIDRGLAFVEYQSVIGNGFRFQQQAWANNPRFPFSKGPSIQLGLDPVIGQGSPRETFGLDPRNASESFTVPQVIISNGGEYFFSPSITAIVEKFAA
notes: 502 aa given, 52-aa signal peptide stated
In the case of B2, the Km is 24 ± 7.5 µM in series [1] (setting [11]); 62 ± 11 µM in series [2] (setting [12]); “(2.1 ± 0.98) × 10^4 μM” in series [6]; 58 ± 3 µM in series [3] (setting [13]); 159 ± 61 µM in series [4] (setting [13]); 133 ± 34 µM in series [5] (setting [14]). In addition, the kcat was found to be 413 ± 34 s⁻¹ in series [1] (setting [11]); 8356 ± 747 s⁻¹ in series [2] (setting [12]); 108 ± 47 s⁻¹ in series [6]; 4896 ± 131 s⁻¹ in series [3] (setting [13]); 267 ± 96 s⁻¹ in series [4] (setting [13]); 5345 ± 921 s⁻¹ in series [5] (setting [14]). Further, the kcat/Km result in series [1] (setting [11]) is recorded as “(1.7 ± 0.1) × 10^7 s^-1M^-1”; in series [2] (setting [12]) it was “(1.3 ± 0.1) × 10^8 s^-1M^-1”; in series [6], “(5.2 ± 2.3) × 10^3 s^-1M^-1”; in series [3] (setting [13]), “(8.4 ± 0.2) × 10^7 s^-1M^-1”; in series [4] (setting [13]), “(1.7 ± 0.6) × 10^6 s^-1M^-1”; in series [5] (setting [14]) it was “(4.0 ± 0.7) × 10^7 s^-1M^-1”.
